Measured values: US20230256092A1, “COMBINED USE OF ANTI-CCR8 ANTIBODY AND CHEMOTHERAPEUTIC AGENT” (Shionogi & Co., Ltd., priority 2020, published 2023)
Residue numbers refer to the chain shown, from its start. In names and notes the source's numbering stands.

Key:
human CCR4 = target: T1, human CCR4 (Homo sapiens, UniProt P51679); experiment: Antigen-binding test on transiently expressing Expi293 cells; parameters: key: an antibody having significantly reduced binding activity was indicated as A; an antibody having binding activity of the detection limit or less was indicated as x; The blank column means that it exhibits the same binding activity as the wild-type human CCR8 (hCCR8); details: 5, 0.5 and 0.05 ug/mL, in comparison to wild-type hCCR8
T1 construct: expressed in transfected cells; host or cells: Expi293 cells, pcDNA 3.4 vector, transient
T1 sequence (P51679 1-360): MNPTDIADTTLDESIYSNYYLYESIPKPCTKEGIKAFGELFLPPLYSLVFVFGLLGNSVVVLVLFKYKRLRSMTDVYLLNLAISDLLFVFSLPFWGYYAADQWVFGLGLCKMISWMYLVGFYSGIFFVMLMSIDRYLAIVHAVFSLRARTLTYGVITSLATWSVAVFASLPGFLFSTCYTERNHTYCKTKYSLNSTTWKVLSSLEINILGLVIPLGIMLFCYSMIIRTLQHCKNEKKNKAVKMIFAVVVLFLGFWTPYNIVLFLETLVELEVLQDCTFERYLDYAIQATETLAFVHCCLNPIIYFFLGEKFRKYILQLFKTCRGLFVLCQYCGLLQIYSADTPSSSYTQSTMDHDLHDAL
Description: (§1) The gene encoding the full length of human CCR8 (UniProtKB/Swiss-Prot: P51685, SEQ ID NO: 1), the gene encoding the full length of human CCR4 (UniProtKB/Swiss-Prot: P51679, SEQ ID NO: 48) and the gene encoding the full length of mouse CCR8 (UniProtKB/Swiss-Prot: P56484, SEQ ID NO: 39) were cloned into pcDNA 3.4 vectors, respectively. These vectors were used for transfection to produce Expi293 cells transiently expressing human CCR8, human CCR4, or mouse CCR8. These cells were reacted with a dilution series of the purified antibodies of each clone, and the binding properties thereof were evaluated by detection with Alexa488-labeled anti-mouse IgG antibody (manufactured by Thermo Fisher Scientific). As a result, every antibody bound to human CCR8, but not to human CCR4 and mouse CCR8 at all.

mouse CCR8 = target: T2, mouse CCR8 (Mus musculus, UniProt P56484); experiment: as above; parameters: key: an antibody having significantly reduced binding activity was indicated as A; an antibody having binding activity of the detection limit or less was indicated as x; The blank column means that it exhibits the same binding activity as the wild-type human CCR8 (hCCR8); details: 5, 0.5 and 0.05 ug/mL, in comparison to wild-type hCCR8
T2 construct: expressed in transfected cells; host or cells: Expi293 cells, pcDNA 3.4 vector, transient
T2 sequence (P56484 1-353): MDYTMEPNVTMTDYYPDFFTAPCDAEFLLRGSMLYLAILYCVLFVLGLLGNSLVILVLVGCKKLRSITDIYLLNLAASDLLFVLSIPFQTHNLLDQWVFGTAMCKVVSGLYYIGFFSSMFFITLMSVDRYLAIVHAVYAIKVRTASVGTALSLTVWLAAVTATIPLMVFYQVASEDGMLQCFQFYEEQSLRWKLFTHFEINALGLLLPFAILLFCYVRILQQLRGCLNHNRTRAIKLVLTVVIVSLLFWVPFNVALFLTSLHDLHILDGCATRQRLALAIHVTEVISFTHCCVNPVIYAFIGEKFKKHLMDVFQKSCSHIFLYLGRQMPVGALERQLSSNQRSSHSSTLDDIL
Description: as §1

loop1 hCCR4-hCCR8 = target: T3, loop1 hCCR4-hCCR8 (Homo sapiens, UniProt P51685, L95A/L96A/M105L/T103L/V104G); experiment: Antigen-binding test, chimera; details: 5, 0.5 and 0.05 ug/mL, in comparison to wild-type hCCR8
T3 construct: expressed in transfected cells; host or cells: Expi293 cells (method similar to that for the wild type)

loop2 hCCR4-hCCR8 = target: T4, loop2 hCCR4-hCCR8 (Homo sapiens, UniProt P51685, A175Y/D178R/F186K/F197L/F200L/G179N/I196V/K193T/K201E/L181T/L192T/M202I/N188S/N199S/Q173T/Q182Y/Q189L/Q190N/S176T/S185T/T191S/T198S/V174C/V180H/Y172S/Y184K); experiment: Antigen-binding test, chimera; details: 5, 0.5 and 0.05 ug/mL, in comparison to wild-type hCCR8
T4 construct: expressed in transfected cells; host or cells: Expi293 cells (method similar to that for the wild type)

hCCR8 (L5A) = target: T5, hCCR8 (L5A) (Homo sapiens, UniProt P51685, L5A); experiment: Antigen-binding test, human CCR8 point mutant; details: in comparison to wild-type hCCR8
T5 construct: expressed in transfected cells; host or cells: Expi293 cells (method similar to that for the wild type)

hCCR8 (T11A) = target: T6, hCCR8 (T11A) (Homo sapiens, UniProt P51685, T11A); experiment: Antigen-binding test, human CCR8 point mutant; details: in comparison to wild-type hCCR8
T6 construct: expressed in transfected cells; host or cells: Expi293 cells (method similar to that for the wild type)
Description: (§2) Further, to analyze in more detail the N-terminal region that is an epitope region common to all clones having strong neutralization, the human CCR8 point mutants shown in Table 2 were produced. […] It is thus considered that the neutralizing antibodies recognize Y at position 17. In addition, although clone No. 8F7 is only shown in Table 2, plural other neutralizing antibodies had reduced binding activity to the mutant in which I at position 20 of human CCR8 is substituted with A (hCCR8 (I20A)). It is thus considered that some neutralizing antibodies have stereo-structural recognition to bind to isoleucine at position 20.

hCCR8 (K35A) = target: T7, hCCR8 (K35A) (Homo sapiens, UniProt P51685, K35A); experiment: Antigen-binding test, human CCR8 point mutant; parameters: key: an antibody having significantly reduced binding activity was indicated as A; an antibody having binding activity of the detection limit or less was indicated as x; The blank column means that it exhibits the same binding activity as the wild-type human CCR8 (hCCR8); details: in comparison to wild-type hCCR8
T7 construct: expressed in transfected cells; host or cells: Expi293 cells (method similar to that for the wild type)
Description: as §2

human CCR8 = target: T8, human CCR8 (Homo sapiens, UniProt P51685); experiment: Neutralizing activity: inhibition of Ca2+ influx by 200 nM hCCL1 in human CCR8 expressing 293 cells (FLIPR), Test Example 6; type: cell-based; details: Table 9; WT IC50/mutant IC50; humanized 10A11 heavy chain CDR mutants, IGKV4-1/IGHV3-73
T8 construct: expressed in transfected cells; host or cells: 293 cells
Experimental: The antibody dilution diluted with a medium was added to human CCR8 expressing 293 cells in which a Ca^2+ indicator was incorporated beforehand, and Ca^2+ influx by addition of 200 nM hCCL1 (manufactured by BioLegend) was measured with FLIPR. […] The evaluation was performed at least three times, and IC50 was expressed as average±SD.

[1] = tested on: colon cancer-derived Colon26 cells; experiment: Example 11: hCCR8-KI (KI/KI) mice inoculated with Colon26 cells, oxaliplatin combination (Part 2); type: in vivo, mouse; details: as Example 6; 2-7B part: oxaliplatin 10, 14, 17 days, antibody 14, 17 days; 19D7 part: oxaliplatin 10, 14 days, antibody 14 days; combinations from 10 days; Student's T one-sided
Experimental: The back of each hCCR8-KI (KI/KI) mouse (12 weeks old, female) prepared in Test Example 10 was intracutaneously inoculated with 3.5×10^5 colon cancer-derived Colon26 cells (50 uL).
To an oxaliplatin single administration group, saline was intravenously administered 5 days after tumor inoculation, and oxaliplatin (trade name: ELPLAT, Yakult Honsha Company, Limited) at 5 mg/kg body weight was intravenously administered 3 hours after the administration of the saline (N=10). To an anti-mouse CCR8 antibody and oxaliplatin combined administration group, an anti-human CCR8 antibody at 15 mg/kg body weight was intravenously administered 5 days after tumor inoculation, and oxaliplatin at 5 mg/kg body weight was intravenously administered 3 hours after the administration of the anti-mouse CCR8 antibody (N=10). To a control group, saline was intravenously administered 5 days after tumor inoculation, and saline was intravenously administered 3 hours after the administration of the saline (N=10). […] Tumor volumes were measured every 1 to 3 days from 4 days after tumor inoculation (a day before antibody administration). The tumor volume (mm^3) was measured in long diameter (mm)×short diameter (mm)×short diameter (mm)/2, and a significant difference test based on a Mann-Whitney U method (significance level: P<0.05) was conducted. […]

B1: 1H4: mouse anti-human CCR8 neutralizing antibody; light chain SEQ ID NO: 29, heavy chain SEQ ID NO: 30 (antibody, V domains shown)
VH: EVQLVESGGRLVQPKGSLKLSCAASGFTFNTYAMYWIRQAPGKGLEWVARIRSKSNNYATYYADSVKDRFTISRDDSQSMLYLQMNNLKTEDTAMYYCVRARFYYSDYGYAMDYWGQGTSVTVSS
VL: DIVMTQAAPSVPVTPGESVSISCRSSKSLLHSNGNTYLYWFLQRPGQSPQLLIYRMSNLASGVPDRFSASGSGTAFTLRISRVEAEDVGVYYCMQHLEYPLTFGAGTKLELKR
modifications: 1H4 VH; 1H4 VL
Human CCR4
  binding activity, hCCR4: x
Mouse CCR8
  binding activity, mCCR8: x
loop1 hCCR4-hCCR8
  binding activity, loop1 hCCR4-hCCR8: Δ
loop2 hCCR4-hCCR8
  binding activity, loop2 hCCR4-hCCR8: Δ
hCCR8 (L5A)
  binding activity, hCCR8 (L5A): Δ
hCCR8 (T11A)
  binding activity, hCCR8 (T11A): Δ
hCCR8 (K35A)
  binding activity, hCCR8 (K35A): x

B2: h10A11 (IGKV4-1/IGHV3-73 A100eV): humanized 10A11 heavy chain CDR point mutant (antibody, V domains shown)
VL: DIVMTQSPDSLAVSLGERATINCRSSKSLLHSNGNTYLYWYQQKPGQPPKLLIYRMSNLASGVPDRFSGSGSGTDFTLTISSLQAEDVAVYYCMQHLEYPLTFGQGTKLEIKRT
VH: EVQLVESGGGLVQPGGSLKLSCAASGFAFNTYALYWVRQASGKGLEWVGRIRSKSNNYATYYADSVKDRFTISRDDSKNTAYLQMNSLKTEDTAVYYCTRARFYYSDYGYVMDYWGQGTLVTVSS
Human CCR8
  IC50 ratio: 0.49

B3: h10A11 (IGKV4-1/IGHV3-73 M100fL): humanized 10A11 heavy chain CDR point mutant (antibody, V domains shown)
VL: B2 VL
VH: B2 VH with V111A, M112L
Human CCR8
  IC50 ratio: 0.72

B4: h10A11 (IGKV4-1/IGHV3-73 Y102F): humanized 10A11 heavy chain CDR point mutant (antibody, V domains shown)
VL: B2 VL
VH: B2 VH with V111A, Y114F
Human CCR8
  IC50 ratio: 0.99

B5: h10A11 (IGKV4-1/IGHV3-73 Y35F): humanized 10A11 heavy chain CDR point mutant (antibody, V domains shown)
VL: B2 VL
VH: B2 VH with Y35F, V111A
Human CCR8
  IC50 ratio: n.d. (The n.d. (=not detectable) indicates that the IC50 value of the mutant is 10 nM or more)

B6: h10A11 (IGKV4-1/IGHV3-73 L34I): humanized 10A11 heavy chain CDR point mutant (antibody, V domains shown)
VL: B2 VL
VH: B2 VH with L34I, V111A
Human CCR8
  IC50 ratio: 0.43

B7: h10A11 (IGKV4-1/IGHV3-73 T31A): humanized 10A11 heavy chain CDR point mutant (antibody, V domains shown)
VL: B2 VL
VH: B2 VH with T31A, V111A
Human CCR8
  IC50 ratio: 0.17

B8: h10A11 (IGKV4-1/IGHV3-73 Y32F): humanized 10A11 heavy chain CDR point mutant (antibody, V domains shown)
VL: B2 VL
VH: B2 VH with Y32F, V111A
Human CCR8
  IC50 ratio: 0.44

B9: h10A11 (IGKV4-1/IGHV3-73 D101E): humanized 10A11 heavy chain CDR point mutant (antibody, V domains shown)
VL: B2 VL
VH: B2 VH with V111A, D113E
Human CCR8
  IC50 ratio: n.d. (The n.d. (=not detectable) indicates that the IC50 value of the mutant is 10 nM or more)

B10: h10A11 (IGKV4-1/IGHV3-73 A33V): humanized 10A11 heavy chain CDR point mutant (antibody, V domains shown)
VL: B2 VL
VH: B2 VH with A33V, V111A
Human CCR8
  IC50 ratio: n.d. (The n.d. (=not detectable) indicates that the IC50 value of the mutant is 10 nM or more)

B11: 2C7: mouse anti-human CCR8 neutralizing antibody; light chain SEQ ID NO: 35, heavy chain SEQ ID NO: 36 (antibody, V domains shown)
VH: QVQLKQSGPSLVQPSQSLSITCTVSGFSLTAYGVHWIRQSPGKGQEWLGVIWRGGSTDYNAAFMSRLTITKDNSKSQVFFKMNSLQADDTAIYYCAKKGGSYAMDYWGQGTSVTVSS
VL: DVVLTQTPLSLPVSLGGQASISCRSSQSLVHSNGNTYLHWYLQKPGQSPKLLIYKVSNRFSGVPDRFSGSGSGTDFTLKISRVEAEDLGVYFCSQSTQVPLTFGAGTKLELKR
modifications: 2C7 VH; 2C7 VL
Human CCR4
  binding activity, hCCR4: x
Mouse CCR8
  binding activity, mCCR8: x

B12: 2-7B: rat anti-human CCR8 antibody; light chain SEQ ID NO: 37, heavy chain SEQ ID NO: 38 (antibody, V domains shown)
VH: EVQLVESDGGLVQPGRSLKLSCAASGFTFSDYYMAWVRQAPTKGLEWVATITYDVYSTYYRDSVKGRFTISRDNAKSTLYLQMDSLRSEDTATYYCARHGGDGYNSGNWFAYWGQGTLVTVSS
VL: DIVLTQSPALAVSLGQRATISCRASQSVSISRYNIMHWYQQKPGQQPKLLIYRASNLASGIPARFSGSGSGTDFTLTINPVQADDIATYYCQQSRESPPTFGGGTKLELKR
modifications: 2-7B VH; 2-7B VL
[1]
  tumor volume as compared to the control group: no significant decrease
